Publication PMC12678408

Tests used:
[1] = molecular target: peptidase domain (PD) of Pitta sordida ACE2 (Pitta sordida); assay: BLI
[2] = molecular target: peptidase domain (PD) of Pipistrellus abramus angiotensin-converting enzyme 2 (ACE2) (Pipistrellus abramus) (UniProt C7ECT9); assay: BLI

Question: Which Kd [1] does the source give for “RBD of BtPa-BetaCoV/GD2013 (GenBank accession: AIA62343.1) (domain or fragment)” here?
Answer: 138 nM

Question: What about the Kd [2] of the same substance?
Answer: 23.4 nM
